Reference: patent US20220387578A1 (VANDERBILT UNIVERSITY, published 2022)
Where a chain is given by its changes, count along the chain named. Where two headings read alike, the source gives them in different places.

T1: eHead_H1Solomon (wild-type H1 head domain monomer) (influenza A virus, UniProt B4URD6 65-276)
T1 chain: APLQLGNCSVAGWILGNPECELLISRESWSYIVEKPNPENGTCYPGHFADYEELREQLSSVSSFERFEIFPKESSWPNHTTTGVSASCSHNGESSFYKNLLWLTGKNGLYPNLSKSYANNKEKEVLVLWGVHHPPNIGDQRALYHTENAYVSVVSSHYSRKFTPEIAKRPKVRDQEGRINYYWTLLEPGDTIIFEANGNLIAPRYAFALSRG

B1: mAb H5.31 (hybridoma IgG) (antibody, V domains shown)
VH: EVQLVQSGGGLVQPGGSLRLSCEASRFTSSSYWITWVRQAPGKGLEWVANIKQDGSEKYFVDSVKGRFTISRDNASNSLYLQMSSLRAEDTAVYYCARGFLERLLLGRQGAYYYGMDVWGQGTTVTVSS
VL: DIQMTQSPSSLSASVGDRVTMTCRASQSISSSLNWYQQKPGKAPKLLIYAASNLQSGVPSRFSGSGSGTDFTLTISSLQPEDFATYYCQQSYTMPPELTFGGGTKVQIK
B2: mAb H5.28 (hybridoma IgG) (antibody, V domains shown)
VH: EVQLVESGGGLVQPGGSLRLSCAASGFTFSTYWMTWVRQAPGKGLEWVANINQDGGEKYFVDSVKGRFTISRDNAKNSLFLQMNTLRAEDTAVYYCARGFLERLLLGRQGAYYYGMDVWGQGTTVTVSS
VL: B1 VL with T20S, S28I, T93S, M94T, Q107E
B3: rFluA-20 Fab (Fab, V domains shown)
VH: QVQLQESGPGLVKPSETLSLTCSVSGVSVTSDIYYWTWIRQPPGKGLEWIGYIFYNGDTNYNPSLKSRVTMSIDTSKNEFSLRLTSVTAADTAVYFCARGTEDLGYCSSGSCPNHWGQGTLVTVSS
VL: DIQMTQSPSSLSASIGDRVTITCRPSQNIRSFLNWFQHKPGKAPKLLIYAASNLQSGVPSRFSGSGSGTEFTLTIRSLQPEDFATYYCQQSYNTPPTFGQGTKVEIK
B4: FluA-20-UCA IgG (unmutated common ancestor of FluA-20) (antibody, V domains shown)
VH: QVQLQESGPGLVKPSETLSLTCTVSGGSVSSGSYYWSWIRQPPGKGLEWIGYIYYSGSTNYNPSLKSRVTISVDTSKNQFSLKLSSVTAADTAVYYCARGTEDLGYCSGGSCPNHWGQGTLVTVSS
VL: not shown
B5: FluA20_UCA (as used in the SPR experiments of Example 4) (antibody, V domains shown)
VH: B4 VH
VL: not shown
B6: FluA-20 UCA Fab (Fab, V domains shown)
VH: B4 VH
VL: not shown

Tests used:
[1] = target: H5 HA A/Indonesia/05/2005 (H5N1), recombinant (influenza A virus); experiment: ELISA on coated recombinant HA
[2] = target: A/Duck/Czechoslovakia/1956 (Influenza A virus); experiment: ELISA on coated recombinant HA
[3] = target: H7 HA A/New York/107/2003, recombinant (influenza A virus); experiment: ELISA on coated recombinant HA
[4] = target: H5 HA A/Vietnam/1203/2004 (H5N1), recombinant (influenza A virus); experiment: ELISA on coated recombinant HA
[5] = target: T2, H1 HA A/Texas/36/1991 (H1N1), recombinant soluble trimer (influenza A virus); experiment: ELISA on coated recombinant HA
T2 construct: extracellular domain

[6] = target: T3, H3 HA A/Texas/50/2012, recombinant soluble trimer (influenza A virus); experiment: ELISA on coated recombinant HA
T3 construct: extracellular domain

[7] = target: H12 HA A/duck/Alberta/60/1976, recombinant (influenza A virus); experiment: ELISA on coated recombinant HA
[8] = target: H2 HA A/Singapore/1/1957, recombinant soluble trimer (influenza A virus); experiment: ELISA on coated recombinant HA
[9] = target: A/Turkey/Ontario/6118/1967 (Influenza A virus); experiment: ELISA on coated recombinant HA
[10] = target: T4, H3 HA A/Hong Kong/1/1968 (H3N2), recombinant soluble trimer (influenza A virus, UniProt Q91MA7 17-530); experiment: ELISA on coated recombinant HA
A/Puerto Rico/8/1934 = A/Puerto Rico/8/1934 (Influenza A virus); experiment: ELISA on coated recombinant HA
[11] = target: H1 HA A/South Carolina/1/1918 (H1N1) (influenza A virus, UniProt Q9WFX3 18-529); experiment: BLI, biotinylated HA on streptavidin sensor
[12] = target: T4, H3 HA A/Hong Kong/1/1968 (H3N2), …; experiment: ELISA on coated recombinant HA; remark: listed apart in the source
[13] = target: T5, eHead-H3HK68_v1 (wild-type H3 head domain monomer) (influenza A virus, UniProt Q91MA7 53-335); experiment: SPR
[14] = target: T1, eHead_H1Solomon (wild-type H1 head …); experiment: SPR
[15] = target: T5, eHead-H3HK68_v1 (wild-type H3 head …); experiment: SPR (Example 4, Table E)
[16] = target: T1, eHead_H1Solomon (wild-type H1 head …); experiment: SPR (Example 4, Table E)
[17] = target: T4, H3 HA A/Hong Kong/1/1968 (H3N2), …; experiment: BLI, biotinylated HA on streptavidin sensor

Row | Binder | EC50 [1] | EC50 [2] | EC50 [3] | EC50 [4] | EC50 [5] | EC50 [6] | EC50 [7] | EC50 [8] | EC50 [9] | EC50 [10] | EC50 (A/Puerto Rico/8/1934) | Kd [11] | other results
1 | B1 | > 2.5 µg/mL | 0.006 µg/mL | > 2.5 µg/mL | 0.006 µg/mL | 0.006 µg/mL | 0.936 µg/mL | 0.002 µg/mL | 4 ng/mL | 4 ng/mL | 9 ng/mL | 4 ng/mL |  | 
2 | B2 | > 2.5 µg/mL | 0.021 µg/mL | > 2.5 µg/mL | 0.182 µg/mL | 0.022 µg/mL | > 2.5 µg/mL | 0.269 µg/mL | 14 ng/mL | > 2500 ng/mL | > 2500 ng/mL | 10 ng/mL |  | 
3 | B3 |  |  |  |  |  |  |  |  |  |  |  | 46 nM | 
4 | B4 |  |  |  |  |  |  |  |  |  |  |  |  | EC50 [12]: 0.021 µg/mL
5 | B5 |  |  |  |  |  |  |  |  |  |  |  |  | Kd [13]: 530 nM; Kd [14]: 500 nM; Kd [15]: ~500 nM; Kd [16]: ~500 nM
6 | B6 |  |  |  |  |  |  |  |  |  |  |  | 937 nM | Kd [17]: 486 nM
